# From patent US20230220042A1 (SHANGHAI JIAO TONG UNIVERSITY SCHOOL OF MEDICINE, published 2023)
# T1: Biotin-FcγRIIB (human, UniProt P31994 43-217, limits assumed, biotin label)
# T1 construct: Soluble labelled protein used to stain and sort the display cells; also called human FcγRIIB; CD32b
# T1 sequence (looked up): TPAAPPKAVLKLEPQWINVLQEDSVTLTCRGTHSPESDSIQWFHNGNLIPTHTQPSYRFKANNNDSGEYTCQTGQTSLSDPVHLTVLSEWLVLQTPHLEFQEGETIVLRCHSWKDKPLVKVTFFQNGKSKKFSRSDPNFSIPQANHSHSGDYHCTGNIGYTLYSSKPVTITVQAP
# B1: human IgG2 anti-mouse CD40 surface displayed antibody, S267V/S298L/L328W (antibody, name in EU numbering)
# light chain (with the P2A rest): DTVLTQSPALAVSPGERVTISCRASDSVSTLMHWYQQKPGQQPKLLIYLASHLESGVPARFSGSGSGTDFTLTIDPVEADDTATYYCQQSWNDPWTFGGGTKLELKRTVAAPSVFIFPPSDEQLKSGTASVVCLLNNFYPREAKVQWKVDNALQSGNSQESVTEQDSKDSTYSLSSTLTLSKADYEKHKVYACEVTHQGLSSPVTKSFNRGECGSGATNFSLLKQAGDVEENPG
# heavy chain: EVQLVESDGGLVQPGRSLKLPCAASGFTFSDYYMAWVRQAPTKGLEWVASISYDGSSTYYRDSVKGRFTISRDNAKSTLYLQMDSLRSEDTATYYCGRHSSYFDYWGQGVMVTVSSASTKGPSVFPLAPCSRSTSESTAALGCLVKDYFPEPVTVSWNSGALTSGVHTFPAVLQSSGLYSLSSVVTVPSSNFGTQTYTCNVDHKPSNTKVDKTVERKCCVECPPCPAPPVAGPSVFLFPPKPKDTLMISRTPEVTCVVVDVVHEDPEVQFNWYVDGVEVHNAKTKPREEQFNLTFRVVSVLTVVHQDWLNGKEYKCKVSNKGWPAPIEKTISKTKGQPREPQVYTLPPSREEMTKNQVSLTCLVKGFYPSDIAVEWESNGQPENNYKTTPPMLDSDGSFFLYSKLTVDKSRWQQGNVFSCSVMHEALHNHYTQKSLSLSPGKLEPPPSTVSNMATVAVLVVLGAAIVTGAVVAFVMKMRRRNTGGKGGDYALAPGSQTSDLSLPDCKVMVHDPHSLA
# notes: As m1 with the Fc mutations
# B2: human IgG2 anti-mouse CD40 surface displayed antibody, V266L/L328W (antibody, name in EU numbering)
# light chain (with the P2A rest): DTVLTQSPALAVSPGERVTISCRASDSVSTLMHWYQQKPGQQPKLLIYLASHLESGVPARFSGSGSGTDFTLTIDPVEADDTATYYCQQSWNDPWTFGGGTKLELKRTVAAPSVFIFPPSDEQLKSGTASVVCLLNNFYPREAKVQWKVDNALQSGNSQESVTEQDSKDSTYSLSSTLTLSKADYEKHKVYACEVTHQGLSSPVTKSFNRGECGSGATNFSLLKQAGDVEENPG
# heavy chain: EVQLVESDGGLVQPGRSLKLPCAASGFTFSDYYMAWVRQAPTKGLEWVASISYDGSSTYYRDSVKGRFTISRDNAKSTLYLQMDSLRSEDTATYYCGRHSSYFDYWGQGVMVTVSSASTKGPSVFPLAPCSRSTSESTAALGCLVKDYFPEPVTVSWNSGALTSGVHTFPAVLQSSGLYSLSSVVTVPSSNFGTQTYTCNVDHKPSNTKVDKTVERKCCVECPPCPAPPVAGPSVFLFPPKPKDTLMISRTPEVTCVVVDLSHEDPEVQFNWYVDGVEVHNAKTKPREEQFNSTFRVVSVLTVVHQDWLNGKEYKCKVSNKGWPAPIEKTISKTKGQPREPQVYTLPPSREEMTKNQVSLTCLVKGFYPSDIAVEWESNGQPENNYKTTPPMLDSDGSFFLYSKLTVDKSRWQQGNVFSCSVMHEALHNHYTQKSLSLSPGKLEPPPSTVSNMATVAVLVVLGAAIVTGAVVAFVMKMRRRNTGGKGGDYALAPGSQTSDLSLPDCKVMVHDPHSLA
# notes: As m1 with the Fc mutations
# B3: human IgG2 anti-mouse CD40 surface displayed antibody, V266L/S298L/L328W (antibody, name in EU numbering)
# light chain (with the P2A rest): DTVLTQSPALAVSPGERVTISCRASDSVSTLMHWYQQKPGQQPKLLIYLASHLESGVPARFSGSGSGTDFTLTIDPVEADDTATYYCQQSWNDPWTFGGGTKLELKRTVAAPSVFIFPPSDEQLKSGTASVVCLLNNFYPREAKVQWKVDNALQSGNSQESVTEQDSKDSTYSLSSTLTLSKADYEKHKVYACEVTHQGLSSPVTKSFNRGECGSGATNFSLLKQAGDVEENPG
# heavy chain: EVQLVESDGGLVQPGRSLKLPCAASGFTFSDYYMAWVRQAPTKGLEWVASISYDGSSTYYRDSVKGRFTISRDNAKSTLYLQMDSLRSEDTATYYCGRHSSYFDYWGQGVMVTVSSASTKGPSVFPLAPCSRSTSESTAALGCLVKDYFPEPVTVSWNSGALTSGVHTFPAVLQSSGLYSLSSVVTVPSSNFGTQTYTCNVDHKPSNTKVDKTVERKCCVECPPCPAPPVAGPSVFLFPPKPKDTLMISRTPEVTCVVVDLSHEDPEVQFNWYVDGVEVHNAKTKPREEQFNLTFRVVSVLTVVHQDWLNGKEYKCKVSNKGWPAPIEKTISKTKGQPREPQVYTLPPSREEMTKNQVSLTCLVKGFYPSDIAVEWESNGQPENNYKTTPPMLDSDGSFFLYSKLTVDKSRWQQGNVFSCSVMHEALHNHYTQKSLSLSPGKLEPPPSTVSNMATVAVLVVLGAAIVTGAVVAFVMKMRRRNTGGKGGDYALAPGSQTSDLSLPDCKVMVHDPHSLA
# notes: As m1 with the Fc mutations
# Target: T1, Biotin-FcγRIIB
# Assay: NGS of 3T3 display library Cmix flow-sorted for FcγRIIB binding
Binder,"enrichment factor, percentage after 1st sorting/percentage before sorting [ratio]","enrichment factor, percentage after 2nd sorting/percentage after 1st sorting [ratio]","enrichment factor, percentage after 3rd sorting/percentage after 2nd sorting [ratio]","enrichment factor, percentage after 3rd sorting/percentage before sorting [ratio]","increased factor, mutant enrichment factor/wild-type enrichment factor [ratio]",percentage after 1st sorting [%],percentage after 2nd sorting [%],percentage after 3rd sorting [%],percentage before sorting [%]
B1,3.92,73.6,7.21,2080,5550,0,0.13,0.9,0
B2,4.71,53.3,5.53,1390,3700,0,0.22,1.2,0
B3,21.1,64.8,6.03,8230,21900,0.06,4.14,25,0
